Starred links: 1 amine or outer side, 2 acyl side, 3 side chain; linkers in the order of their positions; H or OH if unused. Non-standard residues stand in square brackets, D forms with d. Groups on a side chain read outwards from the residue. Primed or numbered codes have the meaning given here. No end group written: not given here. *: point of attachment. Dodecylbenzoate = dodecylbenzoyl lipid group; γGlu = O=C(O)[C@H](CCC(=O)[*:2])N[*:1]; Stearoyl = CCCCCCCCCCCCCCCCCC(=O)*; αMeF = C[C@](N)(Cc1ccccc1)C(=O)O; αMeK = C[C@](N)(CCCCN)C(=O)O; Lauroyl = CCCCCCCCCCCC(=O)*; αMeS = C[C@](N)(CO)C(=O)O; PEG2′ = not defined here; Aib = CC(C)(N)C(=O)O; Ahx = NCCCCCC(=O)O
T1: glucose-dependent insulinotropic peptide (gastric inhibitory polypeptide) receptor (GIPR) (human, UniProt P48546 22-466)
T1 sequence (looked up): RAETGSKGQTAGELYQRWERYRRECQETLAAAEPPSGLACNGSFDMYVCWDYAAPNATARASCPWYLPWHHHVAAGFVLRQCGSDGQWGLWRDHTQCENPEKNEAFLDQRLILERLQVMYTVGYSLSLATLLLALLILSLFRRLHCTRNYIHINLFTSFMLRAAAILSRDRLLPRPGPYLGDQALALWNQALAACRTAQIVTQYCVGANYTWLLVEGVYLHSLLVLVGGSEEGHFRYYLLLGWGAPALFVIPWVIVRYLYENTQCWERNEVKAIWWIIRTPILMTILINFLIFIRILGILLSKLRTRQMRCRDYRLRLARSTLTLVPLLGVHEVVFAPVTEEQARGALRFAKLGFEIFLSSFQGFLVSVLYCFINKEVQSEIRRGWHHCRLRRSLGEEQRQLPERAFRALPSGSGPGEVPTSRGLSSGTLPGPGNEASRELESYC

B1: SEQ ID NO 173 (peptide)
peptide: H[Aib]EGS[αMeF]TSDV[αMeS]S[αMeF]LEGEAA[αMeK]E[αMeF]IA[αMeF]VVK([γGlu-Dodecylbenzoate])GG-NH2
B2: SEQ ID NO 176 (peptide)
peptide: H[Aib]EGS[αMeF]TSDV[αMeS]S[αMeF]LEGEAA[αMeK]E[αMeF]IA[αMeF]VVK([Ahx-Dodecylbenzoate])GG-NH2
B3: SEQ ID NO 181 (peptide)
peptide: H[Aib]EGS[αMeF]TSDV[αMeS]S[αMeF]LEGEAA[αMeK]E[αMeF]IA[αMeF]VVK([PEG2′-PEG2′-PEG2′-Dodecylbenzoate])GG-NH2
B4: SEQ ID NO 178 (peptide)
peptide: H[Aib]EGS[αMeF]TSDV[αMeS]S[αMeF]LEGEAA[αMeK]E[αMeF]IA[αMeF]VVK([Ahx-Ahx-Ahx-Dodecylbenzoate])GG-NH2
B5: SEQ ID NO 182 (peptide)
peptide: H[Aib]EGS[αMeF]TSDV[αMeS]S[αMeF]LEGEAA[αMeK]E[αMeF]IA[αMeF]VVK([γGlu-Stearoyl])GG-NH2
modifications: N-terminus assumed
SMILES: CCCCCCCCCCCCCCCCCC(=O)N[C@@H](CCC(=O)NCCCC[C@H](NC(=O)[C@@H](NC(=O)[C@@H](NC(=O)[C@](C)(Cc1ccccc1)NC(=O)[C@H](C)NC(=O)[C@@H](NC(=O)[C@](C)(Cc1ccccc1)NC(=O)[C@H](CCC(=O)O)NC(=O)[C@](C)(CCCCN)NC(=O)[C@H](C)NC(=O)[C@H](C)NC(=O)[C@H](CCC(=O)O)NC(=O)CNC(=O)[C@H](CCC(=O)O)NC(=O)[C@H](CC(C)C)NC(=O)[C@](C)(Cc1ccccc1)NC(=O)[C@H](CO)NC(=O)[C@](C)(CO)NC(=O)[C@@H](NC(=O)[C@H](CC(=O)O)NC(=O)[C@H](CO)NC(=O)[C@@H](NC(=O)[C@](C)(Cc1ccccc1)NC(=O)[C@H](CO)NC(=O)CNC(=O)[C@H](CCC(=O)O)NC(=O)C(C)(C)NC(=O)[C@@H](N)Cc1c[nH]cn1)[C@@H](C)O)C(C)C)[C@@H](C)CC)C(C)C)C(C)C)C(=O)NCC(=O)NCC(N)=O)C(=O)O
B6: SEQ ID NO 174 (peptide)
peptide: H[Aib]EGS[αMeF]TSDV[αMeS]S[αMeF]LEGEAA[αMeK]E[αMeF]IA[αMeF]VVK([γGlu-γGlu-Dodecylbenzoate])GG-NH2
B7: SEQ ID NO 183 (peptide)
peptide: H[Aib]EGS[αMeF]TSDV[αMeS]S[αMeF]LEGEAA[αMeK]E[αMeF]IA[αMeF]VVK([γGlu-γGlu-Stearoyl])GG-NH2
modifications: N-terminus assumed
SMILES: CCCCCCCCCCCCCCCCCC(=O)N[C@@H](CCC(=O)N[C@@H](CCC(=O)NCCCC[C@H](NC(=O)[C@@H](NC(=O)[C@@H](NC(=O)[C@](C)(Cc1ccccc1)NC(=O)[C@H](C)NC(=O)[C@@H](NC(=O)[C@](C)(Cc1ccccc1)NC(=O)[C@H](CCC(=O)O)NC(=O)[C@](C)(CCCCN)NC(=O)[C@H](C)NC(=O)[C@H](C)NC(=O)[C@H](CCC(=O)O)NC(=O)CNC(=O)[C@H](CCC(=O)O)NC(=O)[C@H](CC(C)C)NC(=O)[C@](C)(Cc1ccccc1)NC(=O)[C@H](CO)NC(=O)[C@](C)(CO)NC(=O)[C@@H](NC(=O)[C@H](CC(=O)O)NC(=O)[C@H](CO)NC(=O)[C@@H](NC(=O)[C@](C)(Cc1ccccc1)NC(=O)[C@H](CO)NC(=O)CNC(=O)[C@H](CCC(=O)O)NC(=O)C(C)(C)NC(=O)[C@@H](N)Cc1c[nH]cn1)[C@@H](C)O)C(C)C)[C@@H](C)CC)C(C)C)C(C)C)C(=O)NCC(=O)NCC(N)=O)C(=O)O)C(=O)O
B8: SEQ ID NO 171 (peptide)
peptide: H[Aib]EGS[αMeF]TSDV[αMeS]S[αMeF]LEGEAA[αMeK]E[αMeF]IA[αMeF]VVK([PEG2′-PEG2′-Lauroyl])GG-NH2
B9: SEQ ID NO 179 (peptide)
peptide: H[Aib]EGS[αMeF]TSDV[αMeS]S[αMeF]LEGEAA[αMeK]E[αMeF]IA[αMeF]VVK([PEG2′-Dodecylbenzoate])GG-NH2
B10: SEQ ID NO 175 (peptide)
peptide: H[Aib]EGS[αMeF]TSDV[αMeS]S[αMeF]LEGEAA[αMeK]E[αMeF]IA[αMeF]VVK([γGlu-γGlu-γGlu-Dodecylbenzoate])GG-NH2
B11: SEQ ID NO 180 (peptide)
peptide: H[Aib]EGS[αMeF]TSDV[αMeS]S[αMeF]LEGEAA[αMeK]E[αMeF]IA[αMeF]VVK([PEG2′-PEG2′-Dodecylbenzoate])GG-NH2
B12: SEQ ID NO 177 (peptide)
peptide: H[Aib]EGS[αMeF]TSDV[αMeS]S[αMeF]LEGEAA[αMeK]E[αMeF]IA[αMeF]VVK([Ahx-Ahx-Dodecylbenzoate])GG-NH2
B13: SEQ ID NO 172 (peptide)
peptide: H[Aib]EGS[αMeF]TSDV[αMeS]S[αMeF]LEGEAA[αMeK]E[αMeF]IA[αMeF]VVK([PEG2′-PEG2′-PEG2′-Lauroyl])GG-NH2

biological target: GLP-1 receptor (GLP-1R) (human, UniProt P43220 24-463); assay: cell-based or functional assay

Primary assay EC50 (cAMP), GLP-1R n1 [nM]	Primary assay EC50 (cAMP), GLP-1R n2 [nM]	Primary assay EC50 (cAMP), Mean pM GLP-1R [pM]	Binder
0.021	0.0092	15.1	B1
0.023	0.0096	16	B2
0.0021	0.00083	1.5	B3
0.005	0.0023	3.6	B4
0.13	0.052	89.9	B5
0.022	0.011	16.3	B6
0.064	0.018	40.9	B7
0.0025	0.0012	1.9	B8
0.011	0.0044	7.9	B9
0.023	0.012	17.4	B10
0.0032	0.0011	2.2	B11
0.0064	0.003	4.7	B12
0.0015	0.00072	1.1	B13

biological target: glucagon receptor (GCGR) (human, UniProt P47871 26-477); assay: cell-based or functional assay
Sequence (P47871 26-477): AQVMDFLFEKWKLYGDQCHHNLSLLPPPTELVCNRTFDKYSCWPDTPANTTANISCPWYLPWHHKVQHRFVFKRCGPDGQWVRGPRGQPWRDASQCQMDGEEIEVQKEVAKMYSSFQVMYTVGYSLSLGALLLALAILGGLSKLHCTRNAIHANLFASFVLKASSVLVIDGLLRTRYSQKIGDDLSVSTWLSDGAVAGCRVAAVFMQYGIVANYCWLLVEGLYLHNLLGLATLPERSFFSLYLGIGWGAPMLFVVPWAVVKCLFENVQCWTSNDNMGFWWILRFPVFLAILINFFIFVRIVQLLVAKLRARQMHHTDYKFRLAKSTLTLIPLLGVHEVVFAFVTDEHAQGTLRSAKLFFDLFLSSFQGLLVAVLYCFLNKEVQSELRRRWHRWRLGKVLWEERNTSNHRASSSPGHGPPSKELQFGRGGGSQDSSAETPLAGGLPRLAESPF

Primary assay EC50 (cAMP), Gluc-R, first run [nM]	Primary assay EC50 (cAMP), Gluc-R, second run [nM]	Binder
27	27	B1
27	27	B2
25	25	B3
26	26	B4
28	28	B5
26	26	B6
27	27	B7
27	27	B8
27	27	B9
26	26	B10
26	26	B11
27	27	B12
26	26	B13

biological target: T1, glucose-dependent insulinotropic …; assay: cell-based or functional assay

Primary assay EC50 (cAMP), GIP-R, first run [nM]	Primary assay EC50 (cAMP), GIP-R, second run [nM]	Binder
27	27	B1
27	27	B2
25	25	B3
26	26	B4
28	28	B5
26	26	B6
27	27	B7
27	27	B8
27	27	B9
26	26	B10
26	26	B11
27	27	B12
26	26	B13

From patent publication US20200079833A1 (AstraZeneca / MedImmune, published 2020)
